Source: publication PMC11237401

Columns and labels:
MurG = MurG (UniProt Q2FYL5); test: BACTH (bacterial adenylate cyclase-based two-hybrid); conditions: T18 fusion: Gp11 or mutant; T25 fusion: MurG; parent: est. 5300; read off a plot
DivIC = test: as above; conditions: T18 fusion: Gp11 or mutant; T25 fusion: DivIC; parent: est. 5500; read off a plot

Chain of UniProt Q2FYL5 (Q2FYL5 whole entry, the tested form may be a part): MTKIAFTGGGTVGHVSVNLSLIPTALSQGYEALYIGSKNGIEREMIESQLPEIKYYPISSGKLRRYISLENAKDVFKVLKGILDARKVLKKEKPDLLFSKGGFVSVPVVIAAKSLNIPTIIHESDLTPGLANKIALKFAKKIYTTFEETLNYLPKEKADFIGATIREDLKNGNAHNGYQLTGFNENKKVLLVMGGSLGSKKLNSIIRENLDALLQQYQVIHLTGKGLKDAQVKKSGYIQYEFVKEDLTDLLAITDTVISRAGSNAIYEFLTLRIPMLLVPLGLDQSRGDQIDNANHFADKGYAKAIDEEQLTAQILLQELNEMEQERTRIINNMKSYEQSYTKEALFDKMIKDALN

Substance | response (MurG) | response (DivIC)
Gp11 A38E | 150 Miller Units | 1900 Miller Units
Gp11 G36R | 100 Miller Units | 100 Miller Units
Gp11 S33L | 1600 Miller Units | 3200 Miller Units
